Laboratory results taken from patent US20060194720A1 (SANWA KAGAKU KENKYUSHO, published 2006).
Where no end group is shown, it is not given here.

Molecular target: human GLP-1 receptor (human, UniProt P43220 24-463)
Test: cell-based or functional assay

Q: Which “Cyclic AMP-producing activity, relative to naturally occurring GLP-1 (=100%), at 1 × 10^-10 M” value does the source give for HSEGTFTSDVSSYLEGQAAKEFIAWLVKGKKKKKKKR-NH2 [[Ser^8]-GLP-1 (7-35)-Lys-Lys-Lys-Lys-Lys-Lys-Lys-Arg-NH2] here?
A: 55.6%

Q: And the “Cyclic AMP-producing activity, relative to naturally occurring GLP-1 (=100%), at 1 × 10^-11 M” value?
A: 8.8%

Q: And the “Cyclic AMP-producing activity, relative to naturally occurring GLP-1 (=100%), at × 10^-9 M” value?
A: 92.6%

Q: Which “Cyclic AMP-producing activity, relative to naturally occurring GLP-1 (=100%), at 1 × 10^-10 M” value does the source give for HSEGTFTSDVSSYLEGQAAKEFIAWLVKGRRR-NH2 [[Ser^8]-GLP-1 (7-35)-Arg-Arg-Arg-NH2] here?
A: 95.5%

Q: And the “Cyclic AMP-producing activity, relative to naturally occurring GLP-1 (=100%), at 1 × 10^-11 M” value?
A: 56.4%

Q: And the “Cyclic AMP-producing activity, relative to naturally occurring GLP-1 (=100%), at × 10^-9 M” value?
A: 91.2%

Q: How did the “Cyclic AMP-producing activity, relative to naturally occurring GLP-1 (=100%), at 1 × 10^-10 M” value turn out when HSEGTFTSDVSSYLEGQAAKEFIAWLVKGRRRR-NH2 [[Ser^8]-GLP-1 (7-35)-Arg-Arg-Arg-Arg-NH2] was run?
A: 75.6%

Q: And the “Cyclic AMP-producing activity, relative to naturally occurring GLP-1 (=100%), at 1 × 10^-11 M” value?
A: -17%

Q: And the “Cyclic AMP-producing activity, relative to naturally occurring GLP-1 (=100%), at × 10^-9 M” value?
A: 102%

Q: For HSEGTFTSDVSSYLEGQAAKEFIAWLVKGRRRRRRR-NH2 [[Ser^8]-GLP-1 (7-35)-Arg-Arg-Arg-Arg-Arg-Arg-Arg-NH2], which “Cyclic AMP-producing activity, relative to naturally occurring GLP-1 (=100%), at 1 × 10^-10 M” value is on record?
A: 81.1%

Q: And the “Cyclic AMP-producing activity, relative to naturally occurring GLP-1 (=100%), at 1 × 10^-11 M” value?
A: 64.9%

Q: What about the “Cyclic AMP-producing activity, relative to naturally occurring GLP-1 (=100%), at × 10^-9 M” value of the same binder?
A: 80.6%

Q: How did the “Cyclic AMP-producing activity, relative to naturally occurring GLP-1 (=100%), at 1 × 10^-10 M” value turn out when HSEGTFTSDVSSYLEGQAAKEFIAWLVKGKR-NH2 [[Ser^8]-GLP-1 (7-35)-Lys-Arg-NH2] was run?
A: 113%

Q: And the “Cyclic AMP-producing activity, relative to naturally occurring GLP-1 (=100%), at 1 × 10^-11 M” value?
A: 100%

Q: What about the “Cyclic AMP-producing activity, relative to naturally occurring GLP-1 (=100%), at × 10^-9 M” value of the same binder?
A: 80.5%

Q: Which “Cyclic AMP-producing activity, relative to naturally occurring GLP-1 (=100%), at 1 × 10^-10 M” value does the source give for HSEGTFTSDVSSYLEGQAAKEFIAWLVKGRRRRR-NH2 [[Ser^8]-GLP-1 (7-35)-Arg-Arg-Arg-Arg-Arg-NH2] here?
A: 64.7%

Q: What about the “Cyclic AMP-producing activity, relative to naturally occurring GLP-1 (=100%), at 1 × 10^-11 M” value of the same binder?
A: 34%

Q: And the “Cyclic AMP-producing activity, relative to naturally occurring GLP-1 (=100%), at × 10^-9 M” value?
A: 106%

Q: HSEGTFTSDVSSYLEGQAAKEFIAWLVKGKKKKKKKKKKR-NH2 [[Ser^8]-GLP-1 (7-35)-Lys-Lys-Lys-Lys-Lys-Lys-Lys-Lys-Lys-Lys-Arg-NH2] was tested. Which “Cyclic AMP-producing activity, relative to naturally occurring GLP-1 (=100%), at 1 × 10^-10 M” value did it give?
A: 20.8%

Q: What about the “Cyclic AMP-producing activity, relative to naturally occurring GLP-1 (=100%), at 1 × 10^-11 M” value of the same binder?
A: 7.5%

Q: And the “Cyclic AMP-producing activity, relative to naturally occurring GLP-1 (=100%), at × 10^-9 M” value?
A: 55.4%

Q: Which “Cyclic AMP-producing activity, relative to naturally occurring GLP-1 (=100%), at 1 × 10^-10 M” value does the source give for HSEGTFTSDVSSYLEGQAAKEFIAWLVKGKKKR-NH2 [[Ser^8]-GLP-1 (7-35)-Lys-Lys-Lys-Arg-NH2] here?
A: 96.6%

Q: And the “Cyclic AMP-producing activity, relative to naturally occurring GLP-1 (=100%), at 1 × 10^-11 M” value?
A: 45%

Q: And the “Cyclic AMP-producing activity, relative to naturally occurring GLP-1 (=100%), at × 10^-9 M” value?
A: 86.7%

Q: Which results are given for HSEGTFTSDVSSYLEGQAAKEFIAWLVKGRRRRRR-NH2 [[Ser^8]-GLP-1 (7-35)-Arg-Arg-Arg-Arg-Arg-Arg-NH2]?
A: Cyclic AMP-producing activity, relative to naturally occurring GLP-1 (=100%), at 1 × 10^-10 M: 48.6%; Cyclic AMP-producing activity, relative to naturally occurring GLP-1 (=100%), at 1 × 10^-11 M: 54.3%; Cyclic AMP-producing activity, relative to naturally occurring GLP-1 (=100%), at × 10^-9 M: 75.6%

Q: HSEGTFTSDVSSYLEGQAAKEFIAWLVKGKKKKKR-NH2 [[Ser^8]-GLP-1 (7-35)-Lys-Lys-Lys-Lys-Lys-Arg-NH2] was tested. Which “Cyclic AMP-producing activity, relative to naturally occurring GLP-1 (=100%), at 1 × 10^-10 M” value did it give?
A: 55.3%

Q: And the “Cyclic AMP-producing activity, relative to naturally occurring GLP-1 (=100%), at 1 × 10^-11 M” value?
A: 7.9%

Q: And the “Cyclic AMP-producing activity, relative to naturally occurring GLP-1 (=100%), at × 10^-9 M” value?
A: 63.4%

Q: Which results are given for HSEGTFTSDVSSYLEGQAAKEFIAWLVKGRRRRRRRRR-NH2 [[Ser^8]-GLP-1 (7-35)-Arg-Arg-Arg-Arg-Arg-Arg-Arg-Arg-Arg-NH2]?
A: Cyclic AMP-producing activity, relative to naturally occurring GLP-1 (=100%), at 1 × 10^-10 M: 87.4%; Cyclic AMP-producing activity, relative to naturally occurring GLP-1 (=100%), at 1 × 10^-11 M: 74.5%; Cyclic AMP-producing activity, relative to naturally occurring GLP-1 (=100%), at × 10^-9 M: 95.9%

Q: What does the source list for HSEGTFTSDVSSYLEGQAAKEFIAWLVKGRKK-NH2 [[Ser^8]-GLP-1 (7-35)-Arg-Lys-Lys-NH2]?
A: Cyclic AMP-producing activity, relative to naturally occurring GLP-1 (=100%), at 1 × 10^-10 M: 104%; Cyclic AMP-producing activity, relative to naturally occurring GLP-1 (=100%), at 1 × 10^-11 M: 53.2%; Cyclic AMP-producing activity, relative to naturally occurring GLP-1 (=100%), at × 10^-9 M: 88.8%

Q: With HSEGTFTSDVSSYLEGQAAKEFIAWLVKGR-NH2 [[Ser^8]-GLP-1 (7-35)-Arg-NH2] as the binder, how does the “Cyclic AMP-producing activity, relative to naturally occurring GLP-1 (=100%), at 1 × 10^-10 M” value read?
A: 111%

Q: And the “Cyclic AMP-producing activity, relative to naturally occurring GLP-1 (=100%), at 1 × 10^-11 M” value?
A: 97.9%

Q: And the “Cyclic AMP-producing activity, relative to naturally occurring GLP-1 (=100%), at × 10^-9 M” value?
A: 83.6%

Q: What does the source list for HSEGTFTSDVSSYLEGQAAKEFIAWLVKGKKR-NH2 [[Ser^8]-GLP-1 (7-35)-Lys-Lys-Arg-NH2]?
A: Cyclic AMP-producing activity, relative to naturally occurring GLP-1 (=100%), at 1 × 10^-10 M: 88.9%; Cyclic AMP-producing activity, relative to naturally occurring GLP-1 (=100%), at 1 × 10^-11 M: 36.2%; Cyclic AMP-producing activity, relative to naturally occurring GLP-1 (=100%), at × 10^-9 M: 81.6%
